Where no end group is shown, it is not given here. Me3 = N6,N6,N6-trimethyl (lysine)
T1: 15N-labeled WT ZZZ3-ZZ used in NMR titrations (human)
T1 chain: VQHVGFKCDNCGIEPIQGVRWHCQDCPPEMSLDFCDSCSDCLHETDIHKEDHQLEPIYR

T2: 15N-labeled ZZZ3-ZZ F821A used in NMR titrations (human)
T2 chain: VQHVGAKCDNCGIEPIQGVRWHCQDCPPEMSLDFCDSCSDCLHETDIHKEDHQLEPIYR

T3: H3K4me3 (1-12) peptide (Homo sapiens)
T3 chain: H-ARTK(Me3)QTARKSTG


Key:
[1] = molecular target: T1, 15N-labeled WT ZZZ3-ZZ used in NMR …; assay: NMR
[2] = molecular target: T2, 15N-labeled ZZZ3-ZZ F821A used in NMR …; assay: NMR
[3] = molecular target: T3, H3K4me3 (1-12) peptide; assay: tryptophan fluorescence

| Kd [1] [µM] | Kd [2] [µM] | Kd [3] [µM] | Binder |
| --- | --- | --- | --- |
| 14 | 480 | – | ARTK(Ac)QTAR [H3K4ac peptide of the tryptophan fluorescence and NMR titration experiments] |
| 42 | 400 | – | ARTKQTARKSTG [unmodified H3 peptide of the tryptophan fluorescence and NMR titration experiments] |
| – | – | 22 | ZZZ3 ZZ domain (aa 800–903), GST cleaved (domain or fragment) KLKKQKLQQMQAESGFVQHVGFKCDNCGIEPIQGVRWHCQDCPPEMSLDFCDSCSDCLHETDIHKEDHQLEPIYRSETFLDRDYCVSQGTSYNYLDPNYFPANR |
